In the nanobody polyreactivity screen of Harvey et al. (2022):

Test: yeast display, Sf9 membrane polyspecificity reagent, FACS + sequencing; frameworks hold sequencing errors
Procedure, shortened: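 Genes from sorted yeast were amplified by colony PCR, read by MiSeq 2 × 250 sequencing and filtered on CDR length. These cells carried a synthetic nanobody library in Saccharomyces cerevisiae BJ5465 and were sorted by FACS into low and high (top ~1%) gates on anti-HA and streptavidin fluorescence. Polyreactivity is labelled according to the gate of origin.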

| Sequence | polyreactivity (PSR sort gate) |
| --- | --- |
| QVQLVESGGGLVQAGGSLRLSCAASGFIFRYNAMGWYRQAPGKERELVAAIDSGGSTYYADSVKGRFTISRDNAKNTVYLQMNSLKPEDTAVYYCNAVHEASYAGVDYWGQGTQVTVSS | low polyreactivity |
| QVQLVESGGGLVQAGGSLRLSCAASGFIFRYNAMGWYRQAPGKERELVAAISWNGGRTYYADSVKGRFTISRDNAKNTVYLQMNSLKPEDTAVYYCAAELSSYFFSAGYDYWGQGTQVTVSS | high polyreactivity |
| QVQLVESGGGLVQAGGSLRLSCAASGFIFRYNAMGWYRQAPGKERELVAVITSGDNTYYADSVKGRFTISRDNAKNTVYLQMNSLKPEDTAVYYCAARYRHYFVRGGYWGQGTQVTVSS | high polyreactivity |
| QVQLVESGGGLVQAGGSLRLSCAASGFIFRYYAMGWYRQAAGTERELVAAISGGGSSTYYADSVKGRFTISRDNAKNTVYLQMNSLKPEDTAVYYSTARYYYPAIKYDYCGQGTQVTVSS | low polyreactivity |
| QVQLVESGGGLVQAGGSLRLSCAASGFIFRYYAMGWYRQAPGKERELVAAINRGGGTNYADSVKGRFTISRDNAKNTVYLQMNSLKPEDTAVYYCAAVIRTVRERYGYWGQGTQVTVSS | high polyreactivity |
| QVQLVESGGGLVQAGGSLRLSCAASGFIFRYYAMGWYRQAPGKERELVAAINTGGTTYYADSVKGRFTISRDNAKNTVYLQMNSLKPEDTAVYYCATDGSPGYDWGQGTQVTVSS | high polyreactivity |
| QVQLVESGGGLVQAGGSLRLSCAASGFIFRYYAMGWYRQAPGKERELVAAISRTGGSTYYADSVKGRFTISRDNAKNTVYLQMNSLKPEDTAVYYCAADWWAWRAYYYWGQGTQVTVSS | high polyreactivity |
| QVQLVESGGGLVQAGGSLRLSCAASGFIFRYYAMGWYRQAPGKERELVAAISSGGGTTYADSVKGRFTISRDNAKNTVYLQMNSLKPEDTAVYYCAAVSYYARYTYGYDYWGQGTQVTVSS | high polyreactivity |
| QVQLVESGGGLVQAGGSLRLSCAASGFIFRYYAMGWYRQAPGKERELVAAISSSGGSTRYADSVKGRFTISRDNAKNTVYLQMNSLKPEDTAVYYCAARRWRGRYWGDYWGQGTQVTVSS | high polyreactivity |
| QVQLVESGGGLVQAGGSLRLSCAASGFIFRYYAMGWYRQAPGKERELVAAISWSGGSTYYADSVKGRFTISRDNAKNTVYLQMNSLKPEDTAVYYCAADRYAILFYAEDYWGQGTQVTVSS | low polyreactivity |
| QVQLVESGGGLVQAGGSLRLSCAASGFIFRYYAMGWYRQAPGKERELVAAITWSGGSTYYADSVKGRFTISRDNAKNTVYLQMNSLKPEDTAVYYCAADLYYFRYPGYDYWGQGTQVTVSS | high polyreactivity |
| QVQLVESGGGLVQAGGSLRLSCAASGFIFRYYAMGWYRQAPGKERELVASIVWSGGNTYYADSVKGRFTISRDNAKNTVYLQMNSLKPEDTAVYYCNRRGMDWGQGTQVTVSS | low polyreactivity |
| QVQLVESGGGLVQAGGSLRLSCAASGFIFSFYAMGWYRQAPGKERALVAAINWSGGSTYYADSVKGRFTISRDNAKNTVYIQMNSLKPEDTEVYYCNAVQYFSIPKPVWLFVLRYYYWGQGTQVTVSS | low polyreactivity |
| QVQLVESGGGLVQAGGSLRLSCAASGFIFSGNAMGWYRQAPGKERELVAAISTSGGRTYYADSVKGRFTISRDNAKNSDYLQMKSLKPEDTAVYYFNRAPWYRYTRDKYEYWGQGTQVTVSS | high polyreactivity |
| QVQLVESGGGLVQAGGSLRLSCAASGFIFSGNAMGWYRQAPGKERELVARIRSGDRTYYADSVKGRFTISRDNAKNTVYLQMNSLKPEDTAVYYCAAYAWYDWRSYFPILGYEYCGQGTQVTVSS | low polyreactivity |
| QVQLVESGGGLVQAGGSLRLSCAASGFIFSGNAMGWYRQAPGKERELVARIRSGDRTYYADSVKGRFTISRDNAKNTVYLQMNSLKPEDTAVYYCAAYAWYDWRSYFPILGYEYWGQGTQVTVSS | low polyreactivity |
| QVQLVESGGGLVQAGGSLRLSCAASGFIFSGYAMGWYRQAPGKERELVAAITSSGGNTYYADSVKGRFTISRDNAKNTVYLQMNSLKAEDTAVYYCARYSIFRWTRDEYWGQGTQVTVSS | high polyreactivity |
| QVQLVESGGGLVQAGGSLRLSCAASGFIFSGYVMGWYRQAPGKERELVAAITGSDGSTYYADSVKGRFTISRDNAKNTVYLQMNSLKPEDTAVYYCATTFQYYWFSLYDYWGQGTQVTVSS | low polyreactivity |
| QVQLVESGGGLVQAGGSLRLSCAASGFIFSKYAMGWYRQAPGKERELVAAISWSGGSTYYADSVKGRFTISRDNAKNTVYLQMNSLKPEDTAVYYCAADWYFELFRVYAEYDYWGQGTQVTVSS | low polyreactivity |
| QVQLVESGGGLVQAGGSLRLSCAASGFIFSKYTMGWSRQAPGKERELVASISWSGGSTYYADSVKGRFTISRDTAKNTVFLQMNSLKPEDTAVYYCAAEAWGWVFGGYYYWGQGTQVTVSS | low polyreactivity |

| Sequence | polyreactivity (PSR sort gate) |
| --- | --- |
| QVQLVESGGGLVQAGGSLRLSCAASGFIFSNYAMGWYRQAPGKERELVAAISWSGGNTYYADSVKGRFTISRDNAKNTVYLQMNSLKPEDTAVYYCTRVKAYYRWFLPRYQYNYWGQGTQVTVSS | high polyreactivity |
| QVQLVESGGGLVQAGGSLRLSCAASGFIFSPYAMGWYRQAPGKERELVAAINGGGRTYYADSVKGRFTISRDNAKNTVYLQMNSLKPEDTAVYYCAVDPISQGHMDYWGQGTQVTVSS | low polyreactivity |
| QVQLVESGGGLVQAGGSLRLSCAASGFIFSPYAMGWYRQAPGKERELVAAISSGTRTNYADSVKGRFTISRDNAKNTVYLQMNSLKPEDTAVYYCAAKYRGTYDSRVYYWFYYWGQGTQVTVSS | high polyreactivity |
| QVQLVESGGGLVQAGGSLRLSCAASGFIFSPYAMGWYRQAPGKERELVATITWSGGRTYYADSVKGRFTISRDNAKNTVYLQMNSLKPEDTAVYYCNADGYQPALNKDFGYWGQGTQVTVSS | low polyreactivity |
| QVQLVESGGGLVQAGGSLRLSCAASGFIFSQNAMGWYRQAPGKERELVAAITSGGGTNYADSVKGRFTISRDNAKNTVYLQMNSLKPEDTAVYYCAADDEKRYSYQTYFERDYWGQGTQVTVSS | low polyreactivity |
| QVQLVESGGGLVQAGGSLRLSCAASGFIFSQNVMGWYRQAPGKERELVAAISSSGGSTYYADSVKGRFTISRDNAKNTVYLQMNSLKREDTAVYYCAARPYVRFNYWGQGTQVTVSS | high polyreactivity |
| QVQLVESGGGLVQAGGSLRLSCAASGFIFSRNAMGWYRQAPGKERELVAAITRGGITYYADSVKGRFTISRDNAKNTVYLQMNSLKPEDTAVYYCAAYRTYQAYTGSHYYYWGQGTQVTVSS | high polyreactivity |
| QVQLVESGGGLVQAGGSLRLSCAASGFIFSRNAMGWYRQAPGKERELVATISKRGGSTYYADSVKGRFTISRDNAKNTVYLQMNSLKPEDTAVYYCAATGGILSTYDYWGQGTQVTVSS | high polyreactivity |
| QVQLVESGGGLVQAGGSLRLSCAASGFIFSRYAMGWYRQAPGKERELVAAIRFSGSITYYADSVKGRFTISRDNAKNTVYLQMNSLKPEDTAVYYCAAYRRYYGWYEYWGQGTQVTVSS | high polyreactivity |
| QVQLVESGGGLVQAGGSLRLSCAASGFIFSRYAMGWYRQAPGKERELVAAISIGGSTYYADSVKGRFTISRDNAKNTVYVQMNSLKPEDTAVYYCPVDYRHSSSWNAGPWEMYYWGQGTQVTVSS | low polyreactivity |
| QVQLVESGGGLVQAGGSLRLSCAASGFIFSRYAMGWYRQAPGKVRELVASISWGGGSTSYADSVKGRFTISRDNAKNTVYLQMNSLKPEDTAVYYCNARVRSHRFNYWGQGTQVTVSS | high polyreactivity |
| QVQLVESGGGLVQAGGSLRLSCAASGFIFSRYPMGWYRQAPGKERELVASISWRGGSTSYADSVKGRFTISRDNAKNTVYLQMNSLKPEDTAVYYCAASSRQVLEYDYWGQGTQVTVSS | high polyreactivity |
| QVQLVESGGGLVQAGGSLRLSCAASGFIFSRYSMGWYRQAPGKERELVAGITSRGGITYYADSVKGRFTISRDNAKNTVYLQMNSLIPEDTAVYYCNAGKSLSKSFDYWGQGTQVTVSS | high polyreactivity |
| QVQLVESGGGLVQAGGSLRLSCAASGFIFSRYVMGWYRQAPGKERELVAAISGSGGRTYYADSVKGRFTISRDKAKNTVYLQMNSLKPEDTAVYYCAARFLSPYHYYYWGQGTQVTVSS | high polyreactivity |
| QVQLVESGGGLVQAGGSLRLSCAASGFIFSSNAMGGYRQAPGKERELDATISFSGDSTYYADSVKGRFTISRDNEKNTVYLQMNSLKPEDTAVYYCARSTYYRWYKYGYYDYNYWGQGTQVTVSS | low polyreactivity |
| QVQLVESGGGLVQAGGSLRLSCAASGFIFSSNAMGWYRQAPGKERELVAGITASGVSTYYADSVKGRFTISRDNAKNTVYLQMNSLKPEDTAVYYCAALGLYYYFYSQYIDWDDYWGQGTQVTVSS | low polyreactivity |
| QVQLVESGGGLVQAGGSLRLSCAASGFIFSSNAMGWYRQAPGKERELVATISFSGESTYYADSVKGRFTISRDNAKNTVYLQMNSLKPEDTAVYYCARRTYYRWYKYGYYDYNYWRQGTQVTVSS | low polyreactivity |
| QVQLVESGGGLVQAGGSLRLSCAASGFIFSSYAMAWYRQAPGKERDLVAAISKSGDRTSYADSVKGRFTISRDNAKNTVYLQMNSLKPEDTAVYYCAKDRLYRTKKYRDMYYWGQGTQVSVSS | high polyreactivity |
| QVQLVESGGGLVQAGGSLRLSCAASGFIFSTYAMGWYRQAPGKERELVASIDWSGDSTYYADSVKGRFTISRDNAKNTVYLQMTSLKPEDTAVYEFAADDASYPYIFDSYDYWGQGTQVTVSS | low polyreactivity |
| QVQLVESGGGLVQAGGSLRLSCAASGFIFSVNAMGWYRQAPGKERELVADISCRGTSTNYADSVKGRFTISRDNAKNTVYLQMNSLKPEDTAVYYCAADGQLHMDYWGQGTQVTVSS | high polyreactivity |
